Measured values reported in article PMC3869383.

Key:
[1] = target: recombinant base variant NT2 (C-terminal tail of Rpt2 truncated) (S. cerevisiae) (UniProt P33299); assay: ATPase-repression titration
[2] = target: recombinant base variant NT5 (C-terminal tail of Rpt5 truncated) (S. cerevisiae) (UniProt P33299); assay: ATPase-repression titration
[3] = target: 20S core particle purified from S. cerevisiae (S. cerevisiae (endogenous in yeast)) (UniProt P22141)
[4] = target: 20S core particle purified from S. cerevisiae (S. cerevisiae (endogenous in yeast)) (UniProt P22141); assay: peptidase-stimulation

Work on “20S core particle purified from S. cerevisiae (from UniProt P22141 1-198) (complex)” yielded a fold lower affinity than wild-type base [1] of 1.3 fold and a fold lower affinity than wild-type base [2] of 5.6 fold.

“recombinant base variant DN4 (pore-2 loop DN in Rpt4) (from UniProt P33299;P40327;P33298;P53549;P33297;Q01939;P38764;P32565;O13563) (complex)” was tested, and the peptidase stimulation, % of WT base [3] was 192 % WT.

“recombinant base variant DN6 (pore-2 loop DN in Rpt6) (from UniProt P33299;P40327;P33298;P53549;P33297;Q01939;P38764;P32565;O13563) (complex)” showed a peptidase stimulation, % of WT base [3] of 84 % WT.

With “recombinant base variant EN2 (pore-2 loop EN in Rpt2) (from UniProt P33299;P40327;P33298;P53549;P33297;Q01939;P38764;P32565;O13563) (complex)” the peptidase stimulation, % of WT base [3] was 110 % WT.

“recombinant base variant EQ4 (Walker-B EQ in Rpt4) (from UniProt P33299;P40327;P33298;P53549;P33297;Q01939;P38764;P32565;O13563) (complex)” was tested, and the peptidase stimulation, % of WT base [3] was 95 % WT.

“recombinant base variant EQ5 (Walker-B EQ in Rpt5) (from UniProt P33299;P40327;P33298;P53549;P33297;Q01939;P38764;P32565;O13563) (complex)” was tested, and the peptidase stimulation, % of WT base [3] was 118 % WT.

Work on “recombinant base variant KS2 (Walker-A KS in Rpt2) (from UniProt P33299;P40327;P33298;P53549;P33297;Q01939;P38764;P32565;O13563) (complex)” yielded a peptidase stimulation, % of WT base [3] of 10 % WT.

Substance “recombinant base variant KS3 (Walker-A KS in Rpt3) (from UniProt P33299;P40327;P33298;P53549;P33297;Q01939;P38764;P32565;O13563) (complex)” has a peptidase stimulation, % of WT base [3] of 58 % WT.

Substance “recombinant base variant KS5 (Walker-A KS in Rpt5) (from UniProt P33299;P40327;P33298;P53549;P33297;Q01939;P38764;P32565;O13563) (complex)” has a peptidase stimulation, % of WT base [3] of 59 % WT.

“recombinant base variant KS6 (Walker-A KS in Rpt6) (from UniProt P33299;P40327;P33298;P53549;P33297;Q01939;P38764;P32565;O13563) (complex)” showed a peptidase stimulation, % of WT base [3] of 54 % WT.

Work on “recombinant base variant NT2 (C-terminal tail of Rpt2 truncated) (from UniProt P33299;P40327;P33298;P53549;P33297;Q01939;P38764;P32565;O13563) (complex)” yielded a peptidase stimulation, % of WT base [3] of 10 % WT.

Substance “recombinant base variant NT3 (C-terminal tail of Rpt3 truncated) (from UniProt P33299;P40327;P33298;P53549;P33297;Q01939;P38764;P32565;O13563) (complex)” has a peptidase stimulation, % of WT base [3] of 5 % WT.

“recombinant base variant NT4 (C-terminal tail of Rpt4 truncated) (from UniProt P33299;P40327;P33298;P53549;P33297;Q01939;P38764;P32565;O13563) (complex)” showed a peptidase stimulation, % of WT base [3] of 108 % WT.

Substance “recombinant base variant NT5 (C-terminal tail of Rpt5 truncated) (from UniProt P33299;P40327;P33298;P53549;P33297;Q01939;P38764;P32565;O13563) (complex)” has a peptidase stimulation, % of WT base [3] of 7 % WT.

Work on “recombinant base variant YA1 (pore-1 loop YA in Rpt1) (from UniProt P33299;P40327;P33298;P53549;P33297;Q01939;P38764;P32565;O13563) (complex)” yielded a peptidase stimulation, % of WT base [3] of 84 % WT.

In the case of “recombinant base variant YA2 (pore-1 loop YA in Rpt2) (from UniProt P33299;P40327;P33298;P53549;P33297;Q01939;P38764;P32565;O13563) (complex)”, the peptidase stimulation, % of WT base [3] is reported as 38 % WT and the Kd [4] is reported as 0.138 µM.

With “recombinant base variant with the Walker-B EQ mutation in all six Rpt subunits (from UniProt P33299;P40327;P33298;P53549;P33297;Q01939;P38764;P32565;O13563) (complex)” the peptidase stimulation, % of WT base [3] was 110 % WT.
